{"source": "paper PMC5360590", "about": "(EBioMedicine, 2017)", "binders": {"B1": {"name": "S9-1-10/5-1, recombinant monoclonal human IgG (IgG1, kappa) (antibody, V domains shown)", "VH": "QLHLQESGPGLLKPSATLSLTCTVSGGSMNNYYWSWVRQAPGKGLEWIGYIFHSGSTNYSPPLKSRVTISIDTATNQFFLRLNSVTAADTAVYYCARMSRGVFSSSRFFGLDVWGRGTAVAVSS", "VL": "EIVLTQSPATLSVSPGERATLSCRASQSVASNLAWYQQKPGQAPRLLISAASTRATDIPARFSGSGSGTEFTLTISSLQSEDFAVYYCQQYNNWLSFTFGPGTKVDMK"}}, "key": {"[1]": {"molecular_target": "HA of A/duck/Australia/341/83 (H15), expressed in cells from pCAGGS (Influenza A virus …, UniProt Q82565, strain)", "assay": "immunostaining of cells or tissue"}, "[2]": {"molecular_target": "HA of A/duck/Memphis/546/74 (H11), expressed in cells from pCAGGS (Influenza A virus …, UniProt Q0A426, strain)", "assay": "immunostaining of cells or tissue"}, "[3]": {"molecular_target": "HA of A/Singapore/1/57 (H2), expressed in cells from pCAGGS (Influenza A virus A/Singapore/1/1957 …, UniProt Q67333, strain)", "assay": "immunostaining of cells or tissue"}, "[4]": {"molecular_target": "HA of A/mallard/Astrakhan/263/82 (H14), expressed in cells from pCAGGS (Influenza A virus …, UniProt P26136, strain)", "assay": "immunostaining of cells or tissue"}, "[5]": {"molecular_target": "HA of A/turkey/Ontario/6118/68 (H8), expressed in cells from pCAGGS (Influenza A virus …, UniProt P03456, strain)", "assay": "immunostaining of cells or tissue"}, "[6]": {"molecular_target": "HA of A/duck/Czechoslovakia/56 (H4), expressed in cells from pCAGGS (Influenza A virus …, UniProt P19696, strain)", "assay": "immunostaining of cells or tissue"}, "[7]": {"molecular_target": "HA of A/gull/Maryland/704/77 (H13), expressed in cells from pCAGGS (Influenza A virus …, UniProt P13103, strain)", "assay": "immunostaining of cells or tissue"}, "[8]": {"molecular_target": "HA of A/turkey/Wisconsin/66 (H9), expressed in cells from pCAGGS (Influenza A virus …, UniProt P03457, strain)", "assay": "immunostaining of cells or tissue"}, "[9]": {"molecular_target": "HA of A/chicken/Germany/N/49 (H10), expressed in cells from pCAGGS (Influenza A virus …, UniProt P12581, strain)", "assay": "immunostaining of cells or tissue"}, "[10]": {"molecular_target": "HA of A/California/04/2009 (CA04; H1N1pdm09) on virus particles (Influenza A virus A/California/04/2009 …, UniProt C3W5S1, strain)", "assay": "BLI"}, "[11]": {"molecular_target": "Recombinant soluble HA of subtype H7 (A/Netherland/219/2003, H7N7) (Influenza A virus …, UniProt Q6VMK1)", "assay": "BLI"}, "[12]": {"molecular_target": "Recombinant soluble HA of subtype H1 (A/California/07/2009, H1N1pdm09) (Influenza A virus A/California/07/2009 …, UniProt C3W5X2, strain)", "assay": "BLI"}, "[13]": {"molecular_target": "Recombinant soluble HA of subtype H3 (A/Perth/16/2009, H3N2) (Influenza A virus A/Perth/16/2009 (H3N2), UniProt C6KNH7, strain)", "assay": "BLI"}}, "data": [{"binder": "B1", "values": [{"measurement": "binding result", "setting": "[1]", "value": "binds"}, {"measurement": "binding result", "setting": "[2]", "value": "binds"}, {"measurement": "binding result", "setting": "[3]", "value": "binds"}, {"measurement": "binding result", "setting": "[4]", "value": "binds"}, {"measurement": "binding result", "setting": "[5]", "value": "binds"}, {"measurement": "binding result", "setting": "[6]", "value": "binds"}, {"measurement": "binding result", "setting": "[7]", "value": "binds"}, {"measurement": "binding result", "setting": "[8]", "value": "binds"}, {"measurement": "binding result", "setting": "[9]", "value": "binds"}, {"measurement": "binding result", "setting": "[10]", "value": "binds"}, {"measurement": "Kd", "setting": "[11]", "value": 0.9, "unit": "nM"}, {"measurement": "koff", "setting": "[11]", "value": 0.00037, "unit": "s⁻¹"}, {"measurement": "kon", "setting": "[11]", "value": 410000, "unit": "M⁻¹ s⁻¹"}, {"measurement": "Kd", "setting": "[12]", "value": 0.0085, "unit": "nM"}, {"measurement": "koff", "setting": "[12]", "value": "6.7e-06", "unit": "s⁻¹"}, {"measurement": "kon", "setting": "[12]", "value": 790000, "unit": "M⁻¹ s⁻¹"}, {"measurement": "Kd", "setting": "[13]", "value": 34, "unit": "nM"}, {"measurement": "koff", "setting": "[13]", "value": 0.002, "unit": "s⁻¹"}, {"measurement": "kon", "setting": "[13]", "value": 59000, "unit": "M⁻¹ s⁻¹"}]}]}
